Test results from the supplement of paper PMC9233669.
Fewer inactive variants are shown than the library holds.

Assays:
[1] = system: biotinyl-Leu-oxazolone; experiment: self-aminoacylation, catalytic enhancement (BLO) (fold over background); higher = more active; k-Seq, kA / k0A0; sequences stand for … in GGGAAUGGAUCCACAUCUACGAAUUC…UUCACUGCAGACUUGACGAAGCUG
In short: (§1)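 Catalytic enhancement equals the median kA over the uncatalyzed rate, the latter read from the low-activity peak of a bimodal Gaussian fit. Values of kA came from fitting each sequence's fraction reacted to a pseudo-first-order model, with 1000 bootstraps. Reacted RNA was captured with streptavidin and quantified by triplicate qPCR and Illumina sequencing after 90 minutes at room temperature with 2–1250 μM biotinyl-aminoacyl-oxazolone and 0.43 μM mutagenized RNA pools bearing a 21-nt variable region.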

[2] = system: biotinyl-Ile-oxazolone; experiment: self-aminoacylation, catalytic enhancement (BIO) (fold over background); higher = more active; k-Seq, kA / k0A0; sequences stand for … in GGGAAUGGAUCCACAUCUACGAAUUC…UUCACUGCAGACUUGACGAAGCUG
In short: as §1

[3] = system: biotinyl-Val-oxazolone; experiment: self-aminoacylation, catalytic enhancement (BVO) (fold over background); higher = more active; k-Seq, kA / k0A0; sequences stand for … in GGGAAUGGAUCCACAUCUACGAAUUC…UUCACUGCAGACUUGACGAAGCUG
In short: as §1

[4] = system: biotinyl-Met-oxazolone; experiment: self-aminoacylation, catalytic enhancement (BMO) (fold over background); higher = more active; k-Seq, kA / k0A0; sequences stand for … in GGGAAUGGAUCCACAUCUACGAAUUC…UUCACUGCAGACUUGACGAAGCUG
In short: as §1

[5] = system: biotinyl-Phe-oxazolone; experiment: self-aminoacylation, catalytic enhancement (BFO) (fold over background); higher = more active; k-Seq, kA / k0A0; sequences stand for … in GGGAAUGGAUCCACAUCUACGAAUUC…UUCACUGCAGACUUGACGAAGCUG
In short: as §1

[6] = system: biotinyl-Trp-oxazolone; experiment: self-aminoacylation, catalytic enhancement (BWO) (fold over background); higher = more active; k-Seq, kA / k0A0; sequences stand for … in GGGAAUGGAUCCACAUCUACGAAUUC…UUCACUGCAGACUUGACGAAGCUG
In short: as §1

Sequence	self-aminoacylation [1]	self-aminoacylation [2]	self-aminoacylation [3]	self-aminoacylation [4]	self-aminoacylation [5]	self-aminoacylation [6]
AUUUCCCUGGUCUUCGAGUGA [Fam2.1 aminoacylation ribozyme variant]	7.28	4.33	4.6	6.94	47.9	9.21
CUACUUCCAACAAUCGAUCUG [Fam1A.1 aminoacylation ribozyme variant]	0.664	0.747	0.549	0.494	0.773	0.608
CUACUUCAAACAAGCGUUCUG [Fam1A.1 aminoacylation ribozyme variant]	0.517	0.481	0.499	0.499	0.391	0.503
CCAGACUUCAAGCCAUCGGUC [Fam1B.1 aminoacylation ribozyme variant]	1.24	1.34	1.46	1.17	0.714	1.33
AAGUUUGCUAAUAGCCGCGAG [Fam3.1 aminoacylation ribozyme variant]	2.04	1.05	1.63	0.916	1.6	1.01
CUACUUCAAACAAUCGGGGUG [Fam1A.1 aminoacylation ribozyme variant]	4.32	3.04	2.35	3.77	2.9	3.36
AUUCACCUAUGUCAUCGGGCG [Fam2.2 aminoacylation ribozyme variant]	2.87	2.22	2.13	2.79	10.4	2.2
CUACUAGAAACAAUCGGUCUG [Fam1A.1 aminoacylation ribozyme variant]	0.619	0.673	0.639	0.687	0.401	0.625
CUAGUUCAAACAAUCGGUCUC [Fam1A.1 aminoacylation ribozyme variant]	1.25	0.896	0.863	0.795	9.67	5.9
AAGUUGACUAAUAGUCGCAAG [Fam3.1 aminoacylation ribozyme variant]	0.935	1.18	0.949	0.839	1.5	1.19
AGUACCCUGGACAUCGAGUGA [Fam2.1 aminoacylation ribozyme variant]	6.32	2.69	2.8	5.06	21.2	5.83
AUUCACCUAAGUCAUCUGGUG [Fam2.2 aminoacylation ribozyme variant]	3.72	2	1.86	2.52	16.6	2.98
AUUACCCUGGUCAUCUAAUGA [Fam2.1 aminoacylation ribozyme variant]	0.908	0.967	0.917	1.06	0.963	0.586
GCACACGUCAAGCAAUCGGUC [Fam1B.1 aminoacylation ribozyme variant]	2.18	2.63	2.85	2.47	11.5	3.95
AUUCACCUAAGUCAUGGGGUG [Fam2.2 aminoacylation ribozyme variant]	7.26	3.71	3.47	5.16	33.4	5.16
AUUACCCUGGUCCACGAGUGA [Fam2.1 aminoacylation ribozyme variant]	10.7	5.37	4.95	9.99	61.1	10.5
AUUCACUGAGGUCAUCGGGUG [Fam2.2 aminoacylation ribozyme variant]	9.09	4.51	4.37	7.22	55.7	5.64
CCACACCUCAAGCAAUCGAUC [Fam1B.1 aminoacylation ribozyme variant]	0.553	0.643	0.76	0.442	0.758	0.298
AUUCAGAUAGGUCAUCGGGUG [Fam2.2 aminoacylation ribozyme variant]	7.3	4.19	3.77	6.75	49.6	5.8
AUUCACCUAGGUCAUCGGAUG [Fam2.2 aminoacylation ribozyme variant]	0.748	0.814	0.928	0.773	0.601	0.594
AAGUCUGCUACUAGUCGCAAG [Fam3.1 aminoacylation ribozyme variant]	1.15	0.699	0.84	0.856	0.846	0.731
CCACACUUCAAGCAAUUGAUC [Fam1B.1 aminoacylation ribozyme variant]	0.536	0.573	0.538	0.368	0.853	0.518
CCAGACAUCAAGCAAUCGGUC [Fam1B.1 aminoacylation ribozyme variant]	0.896	0.911	0.993	0.825	1.06	0.802
AUUACCCUGGUCACCGAGUGG [Fam2.1 aminoacylation ribozyme variant]	3.56	1.57	2.08	2.6	7.88	3.23
AUAACCCUGGUCACCGAGUGA [Fam2.1 aminoacylation ribozyme variant]	9.68	4.78	4.06	8.82	44	10.2
AUUAGUCUGGUCAUCGAGUGA [Fam2.1 aminoacylation ribozyme variant]	4.42	3.35	2.62	3.43	13	3.94
